From PMC7954794, “Protein context shapes the specificity of SH3 domain-mediated interactions in vivo” (Nature Communications, 2021)

B1: YMR216C_2 (protein, UniProt Q03656 1-742, looked up)
Serine/threonine-protein …: MGSSINYPGFVTKSAHLADTSTDASISCEEATSSQEAKKNFFQRDYNMMKKAPAPTKSKLSLALQTSKSSSSANGTVQEDTSSKTEDFSTKSIKKKPDSGVESHVSIQSDSGPQSDSDLDSDSSISSCDERNEESLKDYRPGGYHPAFKGEPYKDARYILVRKLGWGHFSTVWLAKDMVNNTHVAMKIVRGDKVYTEAAEDEIKLLQRVNDADNTKEDSMGANHILKLLDHFNHKGPNGVHVVMVFEVLGENLLALIKKYEHRGIPLIYVKQISKQLLLGLDYMHRRCGIIHTDIKPENVLMEIGDVEGIVQMVEALDKQKREAKRLQRHVSRSSDITANDSSDEKWAECQTSMPCGSSSNSKSRSIEKDLSKRCFRRPRRHTIITGSQPLPSPISSSNFFEMRAHFCGSSHNSFSSVSGNRNIPSSINNNSINNGIGIKNSNNSFLNSVPHSVTRMFINEDSNDNNNNDNSKNKNNNNNNSNNNNNEDIMNTPLHEEQLADSLSTFDISNISQSSDTNGPYISNTMDSNSNVSTDINSPENLIQIKIADLGNACWYDEHYTNSIQTREYRSPEVLLGAPWGCGADIWSTACLIFELITGDFLFEPDEGHSYTKDDDHIAQIIELLGELPSYLLRNGKYTRTFFNSRGLLRNISKLKFWPLEDVLTEKYKFSKDEAKEISDFLSPMLQLDPRKRADAGGLVNHPWLKDTLGMEEIRVPDRELYGSGSDIPGWFEEVRDHKRH
B2: YLR196W_2 (protein, UniProt P21304 1-576, looked up)
Periodic tryptophan protein 1: MISATNWVPRGFSSEFPEKYVLDDEEVERINQLAQLNLDDAKATLEEAEGESGVEDDAATGSSNKLKDQLDIDDDLKEYNLEEYDDEEIADNEGGKDVSMFPGLSNDSDVKFHEGEKGEDPYISLPNQEDSQEEKQELQVYPSDNLVLAARTEDDVSYLDIYVYDDGAGFHSSDIPVEEGDEADPDVARGLVRDPALYVHHDLMLPAFPLCVEWLDYKVGSNSEEAANYAAIGTFDPQIEIWNLDCVDKAFPDMILGEPLDNSMVSLKSKKKKKKSKTGHITTHHTDAVLSMAHNKYFRSVLASTSADHTVKLWDLNSGNAARSLASIHSNKNVSSSEWHMLNGSILLTGGYDSRVALTDVRISDESQMSKYWSAMAGEEIETVTFASENIILCGTDSGNVYSFDIRNNENRKPVWTLKAHDAGISTLCSNKFIPGMMSTGAMGEKTVKLWKFPLDDATNTKGPSMVLSRDFDVGNVLTSSFAPDIEVAGTMVIGGVNKVLKLWDVFTNRSVRKSFKSELENVQARAKEEAQKIGKSSRIARKYTSNDNPDTVITIDDQGEDEEEREGGDEHDDMA
B3: YFR040W_2 (protein, UniProt P43612 1-1002, looked up)
SIT4-associating protein …: MSFWPFGQNLNHSNINKILDEYFHVLHELERINPSVGKAIPAIFNNVQERGTSDSLDSIPEEYSHGDEVKTARGDQKSRFEKDDQQERYEKEEEERSMNSSESSTTSFSSGSTSKTDLDEEDISNATAPMMVTTKNLDNSFIERMLVETELLNELSRQNKTLLDFICFGFFFDKKTNKKVNNMEYLVDQLMECISKIKTATTVDLNNLIDYQEQQQLDDSSQEDVYVESDTEQEEEKEDDNNSNNKKRRKRGSSSFGNDDINNNDDDDDANEDDESAYLTKATIISEIFSLDIWLISESLVKNQSYLNKIWSIINQPNFNSENSPLVPIFLKINQNLLLTRQDQYLNFIRTERSFVDDMLKHVDISLLMDFFLKIISTDKIESPTGIIELVYDQNLISKCLSFLNNKESPADIQACVGDFLKALIAISANAPLDDISIGPNSLTRQLASPESIAKLVDIMINQRGAALNTTVSIVIELIRKNNSDYDQVNLLTTTIKTHPPSNRDPIYLGYLLRKFSNHLSDFFQIILDIENDANIPLHENQLHEKFKPLGFERFKVVELIAELLHCSNMGLMNSKRAERIARRRDKVRSQLSHHLQDALNDLSIEEKEQLKTKHSPTRDTDHDLKNNNGKIDNDNNDNDDESDYGDEIDESFEIPYINMKQNIKLRTDPTVGDLFKIKLYDTRIVSKIMELFLTHPWNNFWHNVIFDIIQQIFNGRMDFSYNSFLVLSLFNLKSSYQFMTDIVISDEKGTDVSRFSPVIRDPNFDFKITTDFILRGYQDSYKFYELRKMNLGYMGHIVLIAEEVVKFSKLYKVELISPDIQVILQTEEWQYYSEEVLNETRMMYSKILGGGSYIDDGNGNIIPQLPDNTTVLTPNGDASNNNEILDSDTGSSNGTSGGGQLINVESLEEQLSLSTESDLHNKLREMLINRAQEDVDNKNTENGVFILGPPEDKNSNSNINNTNHNSNNSNNNDNNDNNDNDNDNTRNYNEDADNDNDYDHE
B4: YLR330W_2 (protein, UniProt Q12114 1-671, looked up)
Chitin biosynthesis protein …: MSSVDVLLTVGKLDASLALLTTQDHHVIEFPTVLLPENVKAGSIIKMQVSQNLEEEKKQRNHFKSIQAKILEKYGTHKPESPVLKIVNVTQTSCVLAWDPLKLGSAKLKSLILYRKGIRSMVIPNPFKVTTTKISGLSVDTPYEFQLKLITTSGTLWSEKVILRTHKMTDMSGITVCLGPLDPLKEISDLQISQCLSHIGARPLQRHVAIDTTHFVCNDLDNEESNEELIRAKHNNIPIVRPEWVRACEVEKRIVGVRGFYLDADQSILKNYTFPPVNEEELSYSKENEPVAEVADENKMPEDTTDVEQVASPNDNESNPSEAKEQGEKSGHETAPVSPVEDPLHASTALENETTIETVNPSVRSLKSEPVGTPNIEENKADSSAEAVVEEPNEAVAESSPNEEATGQKSEDTDTHSNEQADNGFVQTEEVAENNITTESAGENNEPADDAAMEFGRPEAEIETPEVNESIEDANEPAEDSNEPVEDSNKPVKDSNKPVEDSNKPVEDSNKPVEDSNKPVEDANEPVEDTSEPVEDAGEPVQETNEFTTDIASPRHQEEDIELEAEPKDATESVAVEPSNEDVKPEEKGSEAEDDINNVSKEAASGESTTHQKTEASASLESSAVTEEQETTEAEVNTDDVLSTKEAKKNTGNSNSNKKKNKKNKKKGKKK

Each molecule was assayed on PPIs identified as affected by the SH3 domain deletions (assay: Liquid DHFR-PCA low-throughput validation of PPIs affected by SH3 deletion (Fig. S1D-E)). Settings: bait LSB3; label = prey; liquid DHFR-PCA; prey _1 = lost, _2 = gained in screen.
Assay type: cell-based, Saccharomyces cerevisiae
How it was run: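 Yeast diploids from DHFR-PCA mating grown 48 h in synthetic complete MSG medium pH 6.0 with NAT and HPH, normalized to 1 OD and diluted to 0.1 OD in liquid PCA selection medium. Growth followed by OD every 15 min for 72 h at 30 °C.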
For B1, the “Ratio (Deletedscore / WTscore)” value was 1.244. B2 was tested, and the “Ratio (Deletedscore / WTscore)” value was 1.184. With B3 the “Ratio (Deletedscore / WTscore)” value was 1.731. B4 was tested, and the “Ratio (Deletedscore / WTscore)” value was 1.34.
